Literature values in publication PMC3382066.
“And” between values parts separate entries of the source, which are not always exact repeats. Identical values can stand only once. Values belong to the substance of their own block, whether it stands above or below them.

What was measured:
[1] = target: smooth muscle myosin (unphosphorylated) (Gallus gallus) (UniProt P10587)
calmodulin = calmodulin (UniProt P0DP23)
[2] = target: smooth muscle myosin truncated fragment (UniProt P35749)
UniProt P35749, sequence (P35749 1-1175): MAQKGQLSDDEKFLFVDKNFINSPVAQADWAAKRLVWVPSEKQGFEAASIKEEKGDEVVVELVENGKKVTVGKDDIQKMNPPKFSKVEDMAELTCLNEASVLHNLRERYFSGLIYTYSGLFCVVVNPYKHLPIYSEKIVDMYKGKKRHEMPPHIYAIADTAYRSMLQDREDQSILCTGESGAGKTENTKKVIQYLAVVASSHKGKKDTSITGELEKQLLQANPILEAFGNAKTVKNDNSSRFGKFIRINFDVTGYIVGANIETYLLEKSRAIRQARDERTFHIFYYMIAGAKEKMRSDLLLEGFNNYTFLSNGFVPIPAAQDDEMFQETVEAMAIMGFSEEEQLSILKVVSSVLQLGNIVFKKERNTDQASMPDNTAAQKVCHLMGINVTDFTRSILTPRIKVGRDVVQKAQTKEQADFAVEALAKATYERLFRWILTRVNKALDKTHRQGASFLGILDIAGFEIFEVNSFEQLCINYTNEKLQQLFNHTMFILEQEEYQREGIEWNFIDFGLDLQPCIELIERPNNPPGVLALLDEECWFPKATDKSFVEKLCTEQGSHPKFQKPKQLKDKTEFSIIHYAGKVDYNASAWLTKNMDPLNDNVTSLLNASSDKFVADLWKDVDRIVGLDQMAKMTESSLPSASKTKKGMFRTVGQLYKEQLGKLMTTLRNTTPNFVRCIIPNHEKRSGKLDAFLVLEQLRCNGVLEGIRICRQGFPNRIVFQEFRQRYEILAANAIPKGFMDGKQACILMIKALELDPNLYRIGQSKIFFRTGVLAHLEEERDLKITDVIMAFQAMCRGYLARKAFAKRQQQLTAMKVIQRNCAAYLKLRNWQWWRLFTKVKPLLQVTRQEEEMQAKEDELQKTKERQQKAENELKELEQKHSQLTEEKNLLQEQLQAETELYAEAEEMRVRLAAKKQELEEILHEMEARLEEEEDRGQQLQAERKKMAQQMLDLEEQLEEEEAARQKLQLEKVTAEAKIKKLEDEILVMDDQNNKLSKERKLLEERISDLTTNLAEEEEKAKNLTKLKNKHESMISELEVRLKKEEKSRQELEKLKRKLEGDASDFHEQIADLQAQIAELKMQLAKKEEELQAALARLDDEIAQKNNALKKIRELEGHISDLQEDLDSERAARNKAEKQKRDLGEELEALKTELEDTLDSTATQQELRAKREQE

UniProt P10587, sequence (P10587 2-1979): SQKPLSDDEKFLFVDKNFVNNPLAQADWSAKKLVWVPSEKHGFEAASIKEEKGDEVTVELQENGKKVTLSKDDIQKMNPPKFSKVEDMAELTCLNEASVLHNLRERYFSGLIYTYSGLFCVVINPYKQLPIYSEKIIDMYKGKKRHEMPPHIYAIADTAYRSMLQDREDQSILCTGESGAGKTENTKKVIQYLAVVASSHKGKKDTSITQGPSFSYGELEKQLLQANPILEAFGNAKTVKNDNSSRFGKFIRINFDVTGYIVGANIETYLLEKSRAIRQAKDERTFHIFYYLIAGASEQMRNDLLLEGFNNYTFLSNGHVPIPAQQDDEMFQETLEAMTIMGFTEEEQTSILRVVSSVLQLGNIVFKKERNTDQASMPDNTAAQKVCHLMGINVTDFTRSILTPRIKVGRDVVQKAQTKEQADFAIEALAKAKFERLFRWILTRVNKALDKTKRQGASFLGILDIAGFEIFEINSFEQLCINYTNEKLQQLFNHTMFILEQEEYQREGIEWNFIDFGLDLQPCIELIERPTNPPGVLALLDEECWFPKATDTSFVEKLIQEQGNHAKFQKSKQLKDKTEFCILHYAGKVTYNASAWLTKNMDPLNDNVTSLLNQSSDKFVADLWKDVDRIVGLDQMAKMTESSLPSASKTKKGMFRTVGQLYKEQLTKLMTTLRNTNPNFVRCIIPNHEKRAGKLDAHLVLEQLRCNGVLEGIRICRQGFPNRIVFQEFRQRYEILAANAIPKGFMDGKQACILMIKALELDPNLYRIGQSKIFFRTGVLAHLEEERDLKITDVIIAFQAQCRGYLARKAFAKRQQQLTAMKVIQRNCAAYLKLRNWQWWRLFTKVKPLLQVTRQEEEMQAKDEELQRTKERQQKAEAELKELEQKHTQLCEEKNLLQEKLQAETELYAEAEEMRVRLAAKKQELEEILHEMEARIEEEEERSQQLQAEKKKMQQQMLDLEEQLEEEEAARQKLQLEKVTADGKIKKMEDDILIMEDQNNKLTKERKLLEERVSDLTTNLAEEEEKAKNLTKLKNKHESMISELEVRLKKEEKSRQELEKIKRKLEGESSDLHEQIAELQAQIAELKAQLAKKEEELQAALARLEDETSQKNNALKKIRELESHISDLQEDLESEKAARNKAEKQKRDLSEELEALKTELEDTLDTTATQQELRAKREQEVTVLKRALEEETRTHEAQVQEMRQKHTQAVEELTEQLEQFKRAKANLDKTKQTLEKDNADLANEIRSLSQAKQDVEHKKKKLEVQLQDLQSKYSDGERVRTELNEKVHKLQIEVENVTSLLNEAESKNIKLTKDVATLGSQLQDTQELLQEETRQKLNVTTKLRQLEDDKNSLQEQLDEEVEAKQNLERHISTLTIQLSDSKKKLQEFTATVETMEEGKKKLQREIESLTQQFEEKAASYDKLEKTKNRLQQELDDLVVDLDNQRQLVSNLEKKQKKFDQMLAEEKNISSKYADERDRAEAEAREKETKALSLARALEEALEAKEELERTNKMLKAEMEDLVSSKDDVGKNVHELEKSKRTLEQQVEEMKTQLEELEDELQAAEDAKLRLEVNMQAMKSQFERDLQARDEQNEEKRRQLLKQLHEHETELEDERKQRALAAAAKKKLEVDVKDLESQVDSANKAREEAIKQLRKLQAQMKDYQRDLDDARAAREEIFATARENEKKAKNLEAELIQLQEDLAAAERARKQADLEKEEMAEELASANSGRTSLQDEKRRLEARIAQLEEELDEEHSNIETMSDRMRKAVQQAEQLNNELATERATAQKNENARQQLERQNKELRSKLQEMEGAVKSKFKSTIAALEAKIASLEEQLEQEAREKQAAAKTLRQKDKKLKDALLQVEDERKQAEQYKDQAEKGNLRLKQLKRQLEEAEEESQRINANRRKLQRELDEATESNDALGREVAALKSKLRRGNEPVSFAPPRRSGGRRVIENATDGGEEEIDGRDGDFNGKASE
MLCK, sequence (P11799 935-1906): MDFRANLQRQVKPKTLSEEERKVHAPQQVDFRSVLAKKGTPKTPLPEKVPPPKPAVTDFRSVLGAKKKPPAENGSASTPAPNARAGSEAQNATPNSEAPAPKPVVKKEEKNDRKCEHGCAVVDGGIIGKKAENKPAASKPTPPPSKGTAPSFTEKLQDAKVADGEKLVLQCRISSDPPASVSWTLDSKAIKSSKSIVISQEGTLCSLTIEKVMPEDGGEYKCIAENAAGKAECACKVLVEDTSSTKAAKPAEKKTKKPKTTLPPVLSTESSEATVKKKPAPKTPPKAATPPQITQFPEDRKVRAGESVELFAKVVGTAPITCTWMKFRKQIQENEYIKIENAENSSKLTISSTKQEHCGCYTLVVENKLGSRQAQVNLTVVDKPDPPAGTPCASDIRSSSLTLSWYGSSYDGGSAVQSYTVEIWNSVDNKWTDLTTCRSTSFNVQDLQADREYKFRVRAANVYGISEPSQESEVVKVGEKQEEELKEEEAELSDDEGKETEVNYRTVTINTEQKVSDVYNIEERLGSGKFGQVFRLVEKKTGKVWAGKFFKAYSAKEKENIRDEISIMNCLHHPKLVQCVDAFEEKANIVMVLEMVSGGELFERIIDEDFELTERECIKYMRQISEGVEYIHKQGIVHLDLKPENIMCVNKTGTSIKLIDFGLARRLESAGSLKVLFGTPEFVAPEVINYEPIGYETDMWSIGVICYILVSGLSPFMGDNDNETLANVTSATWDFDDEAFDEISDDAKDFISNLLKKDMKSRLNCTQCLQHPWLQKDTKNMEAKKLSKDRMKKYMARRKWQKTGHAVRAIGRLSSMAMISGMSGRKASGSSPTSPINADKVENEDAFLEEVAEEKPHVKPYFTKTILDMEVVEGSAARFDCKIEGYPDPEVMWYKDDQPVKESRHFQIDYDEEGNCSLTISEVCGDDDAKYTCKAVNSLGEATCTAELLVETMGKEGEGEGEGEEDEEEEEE

Kd [1]: 0.8 µM
Substance: MLCK (from UniProt P11799)

Kd (calmodulin): 5 µM
Substance: MLCK N-terminal actin-binding region (from UniProt Q15746)

Ki [2]: 40 µM and 20 µM
Substance: telokin telokin (from UniProt Q15746)
